Laboratory results: publication PMC4431178, “Molecular basis of sugar recognition by collectin-K1 and the effects of mutations associated with 3MC syndrome” (BMC Biology, 2015)

Target: T1, CL-K1 (Homo sapiens, UniProt Q9BWP8)
T1 construct: For full-length protein, the cDNA was cloned into the polylinker region of expression vector pED; made in house; host or cells: Chinese hamster ovary cells
Experiment: Surface plasmon resonance of CL-K1 binding to glycoproteins
Settings: glycoprotein starting concentration 200 nM
Method: Figure 1 Glycoprotein binding and complement activation by CL-K1. A) Immunoblot of CL-K1 binding to immobilised mammalian and yeast glycoproteins. B) Surface plasmon resonance of CL-K1 binding to glycoproteins. […] C3b and its breakdown products were detected by absorbance using an anti-human C3c antibody with alkaline phosphatase-conjugated goat anti-rabbit secondary antibody and p-nitrophenyl phosphate as the substrate. Protein concentrations were calculated based on the molecular masses of CL-K1 and MBL trimers (78 kDa in each case). CL-K1, collectin-K1; MBL, mannan-binding lectin.
CL-K1 was immobilised on the surface of a GLM sensor chip (Bio-Rad Laboratories Ltd (Hemel Hempstead, UK)) by amine coupling. Binding was measured in 10 mM Tris–HCl, pH 7.4 containing 140 mM NaCl, 2 mM CaCl2 and 0.005% Tween 20 at a flow rate of 25 μl/minute and at 25°C. The protein surface was regenerated in buffer containing 1 M NaCl and 5 mM EDTA.

T1 sequence (Q9BWP8 26-271): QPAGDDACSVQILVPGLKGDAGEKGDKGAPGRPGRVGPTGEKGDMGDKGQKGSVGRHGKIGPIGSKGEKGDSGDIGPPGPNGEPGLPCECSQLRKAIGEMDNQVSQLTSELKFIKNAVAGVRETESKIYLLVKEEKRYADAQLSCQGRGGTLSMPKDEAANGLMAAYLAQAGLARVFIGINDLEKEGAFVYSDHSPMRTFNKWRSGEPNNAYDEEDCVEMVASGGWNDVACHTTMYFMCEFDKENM

B1: milk lactoferrin: human milk lactoferrin, contains complex sugars (protein, UniProt P02788 20-710, looked up)
Lactotransferrin: GRRRSVQWCAVSQPEATKCFQWQRNMRKVRGPPVSCIKRDSPIQCIQAIAENRADAVTLDGGFIYEAGLAPYKLRPVAAEVYGTERQPRTHYYAVAVVKKGGSFQLNELQGLKSCHTGLRRTAGWNVPIGTLRPFLNWTGPPEPIEAAVARFFSASCVPGADKGQFPNLCRLCAGTGENKCAFSSQEPYFSYSGAFKCLRDGAGDVAFIRESTVFEDLSDEAERDEYELLCPDNTRKPVDKFKDCHLARVPSHAVVARSVNGKEDAIWNLLRQAQEKFGKDKSPKFQLFGSPSGQKDLLFKDSAIGFSRVPPRIDSGLYLGSGYFTAIQNLRKSEEEVAARRARVVWCAVGEQELRKCNQWSGLSEGSVTCSSASTTEDCIALVLKGEADAMSLDGGYVYTAGKCGLVPVLAENYKSQQSSDPDPNCVDRPVEGYLAVAVVRRSDTSLTWNSVKGKKSCHTAVDRTAGWNIPMGLLFNQTGSCKFDEYFSQSCAPGSDPRSNLCALCIGDEQGENKCVPNSNERYYGYTGAFRCLAENAGDVAFVKDVTVLQNTDGNNNEAWAKDLKLADFALLCLDGKRKPVTEARSCHLAMAPNHAVVSRMDKVERLKQVLLHQQAKFGRNGSDCPDKFCLFQSETKNLLFNDNTECLARLHGKTTYEKYLGPQYVAGITNLKKCSTSPLLEACEFLRK
- binding to CL-K1 by surface plasmon resonance: not
